Results: FireProtDB (doi:10.1021/bi5005975)

B1: H56V, Q9NAV8 (parent)
chain: MGFKQDIATIRGDLRTYAQDIFLAFLNKYPDERRYFKNYVGKSDQELKSMAKFGDHTEKVFNLMMEVADRATDCVPLASDANTLVQMKQHSSLTTGNFEKLFVALVEYMRASGQSFDSQSWDRFGKNLVSALSSAGMK

Variants of: B1
Conditions: Amphitrite ornata; pH 7; 20 °C; Urea; UV?visible spectrophotometer; potassium phosphate 100 mM; transition: 2; reversible: yes; structure 1EW6; whole UniProt chain shown

| Variant | ddG of mutation (higher = less stable) [kcal/mol] | denaturant midpoint (higher = more stable) [M] | unfolding free energy [kcal/mol] |
| --- | --- | --- | --- |
| H56V | -5.1 | 5.35 | 7.52 |

Same assay, conditions: Amphitrite ornata; pH 7; Thermal; UV?visible spectrophotometer; potassium phosphate 100 mM; transition: 2; reversible: yes; structure 1EW6; whole UniProt chain shown

| Variant | Tm [°C] | change of melting temperature, mutant - wild type (higher = more stable) [°C] |
| --- | --- | --- |
| H56V | 61 | 7 |
